41 sequences from the nanobody polyreactivity screen of Harvey et al. (2022) can be followed below.

The data set can be described thus: yeast display, Sf9 membrane polyspecificity reagent, FACS + sequencing; frameworks hold sequencing errors. The procedure, abridged:
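Nanobodies came from a synthetic yeast display library in Saccharomyces cerevisiae BJ5465, induced with galactose for 36–48 hours and stained for 1 hour at 4 °C with 10% biotinylated, detergent-solubilized Sf9 membrane reagent. Cells were enriched on streptavidin microbeads and then FACS-sorted, with low and high (top ~1%) gates set on anti-HA fluorescence for expression and streptavidin fluorescence for reagent binding. Each polyreactivity label reflects the gate a clone came from. Genes were amplified by colony PCR, sequenced by MiSeq 2 × 250 and filtered by CDR length.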
Consider “QVQLVESGGGLVQAGGSLRLSCAASGRTFYWYAMGWYRQAPGKERELVAGISSGGGTYYADSVKGRFTISRDNAKNTVYLQMNSLKPEDTAVYYCAAAWENIWVWQEYIEYDYWGQGTQVTVSS”, for which the “polyreactivity (PSR sort gate)” value is “low polyreactivity”.

Take “QVQLVESGGGLVQAGGSLRLSCAASGNTFSDYAMGWYRQAPGKERELVAAISSSGVRTYYADSVKVRFTISRDNAKNTVYLHMISLNPEDTAVYYCAADNYYYRFVAAMDYWGQGTQVTVSS”: the “polyreactivity (PSR sort gate)” value was “high polyreactivity”.

Turning to “QVQLVQSRGGLVQAGGSLRLSCAASGRTFVYNAMGWYRPAPGKERELVAAIDGGGDRTYYADSVKGRFTISRDNAKNTVYLQMNSLKPEDTAVYYCARDPGDTYYYSYPEGDYWGLGTQVTVSS”, the “polyreactivity (PSR sort gate)” value was “low polyreactivity”.

With “QVQLVESGGGLLQAGGSLRLSCAASGSTYIGNAMGWYRQAPGKERELVAAITSGGSTNYADSVKGRFTISRDNAKNTVYLQKNSLKPEDTAVYYCAKPSRWGWTGFYAYDYWGQGTQVTVSS”, the “polyreactivity (PSR sort gate)” value was “low polyreactivity”.

Turning to “QVQLVESGGGLVQAGGSLRLRCAASGSTFPPNAMGWYRQAPGKERELVAVISNGGSNTRYADSVKGRFTISRDHAKNTVYLQMNSLKPEDTAVYYCAADYEYSGYGYWGQGTQVTVSS”, the “polyreactivity (PSR sort gate)” value is “high polyreactivity”.

Consider “QVQLVESGGGLVQAGGSLRLSCAASGSTCVNNDMGLYRQAPGKEGELVAGITTSGGSTYYADSVKGRFTISRDKAKNTVYLQMNSLKPEDTAVYYCAARAFSAWLEMDYWGQCTQVTVSS”, for which the “polyreactivity (PSR sort gate)” value is given as “low polyreactivity”.

Regarding “QVQLEESGGGLVQAGGRLRLSCAASGIIYDFYAMGWYRQAPGKERELVAAITSSGGSTYYADSVKGRFTISRDNAKKTVYLQMNSLKPEDTAVDYCAAEYTIYGTDQRYYYWGQGTQVTVSS”, the “polyreactivity (PSR sort gate)” value is “low polyreactivity”.

Take “QVQLVESGGGLVQAGGSLRLSCAASGRIFGRYAMGRYRRAPGKESEFVAAIDGGGGRTYADSVKGRFTISRDNAKNTVYLQMNSLKPEDTAVYYCNAYVYSIHWGDLYWSEYDYWGQGTQVTVSS”: the “polyreactivity (PSR sort gate)” value was “high polyreactivity”.

On to “QVQLVESGGGLVQAGGSLRLSCAASGSTFRQNAMGWYRQAPGKERELVAAISSIGDSTNYADSVKGRFTISRDNAKNTVYLQMNSLKPEDTAVYYCAARTVQQRRRLYYWGQGTQVTVSS”, for which the “polyreactivity (PSR sort gate)” value is “high polyreactivity”.

As to “QVQLVESGGGLVQAGGSLRLSCAASGRIFRGYAMGWYRQAPGKERELVAAISYSGGTTYYADSVKGRFTISRDNAKNTVYLQMNSLKPEDTAVYYCNVDADYESQWLSVGYDYWGQGTQVTVSS”, the “polyreactivity (PSR sort gate)” value is listed as “low polyreactivity”.

For “QVQLVESGGGLVQAGGSLSLSCAASGRTFSSYVMGWYRPAPGNERELVAAITQSSSRTYYADSVKGRFTISRDNAKNTVYLQMNSLKRVYTAVYYCNAALYPYLQYYYWGLGTQVTVSS”, the “polyreactivity (PSR sort gate)” value was “low polyreactivity”.

With “QVQLVQSGGGLVQERGSLRLSCAASGRIFVKYTMGWSRQAPGKERELVAAIDFDTDSTYYADSVTGRFTISRDNAKNTVYLQMYSLKPEDTAVYYCATGYLYFTSYRYNYWGQGTQVTVSS”, the “polyreactivity (PSR sort gate)” value was “low polyreactivity”.

With “QFQLVESGGCLVQAGGSLRLSCAASGFIFLQYAMGWYRQAPGKETELGAAITSGGGTNYEDSVKGRFTISRDNAKNTVYLPMNSLKPEDTAGYNCAARTWPWVLGATQDDYWGQGTQVTVSS”, the “polyreactivity (PSR sort gate)” value was “low polyreactivity”.

Regarding “QVQLVESGGGLVQAGGSLRLSCAASGSTFSINAMGWYRPAPGKERELVAAITWRGTRTYYADSVKGRFTISRDNAKNTVYLQMNSLKPEDTAVYYCAATGSGQSSYYYWGQGTQVTVSS”, the “polyreactivity (PSR sort gate)” value is recorded as “high polyreactivity”.

“QVQLVESGGGLVQAGGSLRLSCAASGLTFIEYAKGWYRQAPGKERELVAAISSGGRTYYADSVKGRFTISRDNAKNTVYLQMNSLKPEDTAVYYCNARGYRRWYNYWGQGTQVTVSS”: the “polyreactivity (PSR sort gate)” value is recorded as “high polyreactivity”.

For “QVQLVESGGVLVQAGGSIRLSCAASGRIIYKNAMGWYRQAPGKERELVAAITSSGGSTYYADSVKGRFTISRDNAKITVYFQMNSLKPEDTAVYYCAAYAYGRFGKLNYWGQGTQVTVSS”, the “polyreactivity (PSR sort gate)” value is recorded as “low polyreactivity”.

With “QVQLVESGGGLVQAGGSLRLSCAASGSIFDNYAMGWYRQAPGKERELVAAITSSGNTSYADSVKGRFTISRDNAKNTVYLQMNSLKPEDTAVYYCNADSQVKYTYNNHFDYWGQGTQVTVSS”, the “polyreactivity (PSR sort gate)” value is recorded as “low polyreactivity”.

Regarding “QVQLVESGGGLVQAGGSHRLSCAASGSIFRGYAMGWNRHAPRKERELVASITWSSGSTYYADSVKGRFTISRDNAKITVYLQMNSLKPEDTAVYDCAADVEYWSYEFNYWGQGTQVTVSS”, the “polyreactivity (PSR sort gate)” value is “low polyreactivity”.

As to “QVQLVESGGGLVQAGGSLRLSCAASGFTFTRYAMGWYRQAPGTERELVAAISRRGGSTYYADSVKGRFTISRDNAKNTVYLQMNSLKPEDTAVYYCAKDAGSRTVREFGYWGQGTQVTVSS”, the “polyreactivity (PSR sort gate)” value is on record as “high polyreactivity”.

As for “QVQLVESGGGLVQAGGSLRLSCAASGRIFKGNAMGWYRQAPGKERELVAAISRNGGSTYYADSVKGRFTISRDNAKNTVSLLMNSLKPEDTAVYYCAAYGYRYTEGGWWRMDYWGQGTEVTVSS”, the “polyreactivity (PSR sort gate)” value is “high polyreactivity”.

Consider “QVQLVESGGVLVQAGGSLRLSCAASEIIFTFYAMAWYRQAPGKEMELVAAITSSGGRTYYADSVKGRFTISRDNAKNTVYLQMNSLKPEDTAVYYCAARLPGYVRKYDYWGQGTQVTVSW”, for which the “polyreactivity (PSR sort gate)” value is “high polyreactivity”.

As for “QVQLVESGGGLVQAGGSLRLSCAASGSTFTAYTMGWYRQAPGKERELVAAISKIGTRTYYADSVKGRFTISRDNAKNTVYLQMNSLKPEDTAVYYCATGRSRVYNGRGDYWGQGTQVTVSS”, the “polyreactivity (PSR sort gate)” value is reported as “high polyreactivity”.

For “QVQLVESGGGLVQAGGSLRLSCAASGFIFIKYAMRCYRQAPGKERELVAAISFRGGRTNYADSVKGRFTISRDNAKNTVYLQMNSLKPEDTAVYYCAAETRDYSEGYYWGQGTQVTVSS”, the “polyreactivity (PSR sort gate)” value was “high polyreactivity”.

As to “QVQLVESGGGLVQAGGSLRLSCAPSGITFSYSAMGWYRQAPGKERELVAAISGSGTSTYYADSVKGRFTISRDNAKNTVYVQMNSLKPEVTAVYYCAAKGRKSVYSRNSWGQGTQVTVSS”, the “polyreactivity (PSR sort gate)” value was “high polyreactivity”.

As for “QVQLVESGGGLVQAGGSLRLSCAASGSIFKVYAMGWYRQAPGKERELVAAITGGGRTYYADSVKGRFTISRDNAKNTVYLQMNSLKPEDTAVYYCNAVRGGYHVRYDYWGQGTQVTVSS”, the “polyreactivity (PSR sort gate)” value is “high polyreactivity”.

For the sequence “QVQLVESGGGLVQAGGSLRLSCAASGSIFQSNAMGWDRQAPGKERELVAAISSSGVRTYYADSVKGRFTISRDNAKNTVYLQMNSLKPEDTAVYYCATGWYYAGGPTYEYYYWGQGTQVTVSS”, the “polyreactivity (PSR sort gate)” value is “low polyreactivity”.

As to “QVHLVESGGGLVQAGGSRRLSCAASGRIFSRYTMGCYRQAPGKERELVAVNTSGGSTNYADSVKGRFTISRDNAKNTVYLQMNSLKPEDTAVYYCNAVRFTYGGYLRRYDYWGQGTQVTVSS”, the “polyreactivity (PSR sort gate)” value is listed as “high polyreactivity”.

In the case of “QVQLVESGGGLVQAGGSLRLSCAASGSTFVGYAMGWYRQAPGKERELDAALSANVGGTYYADSVKGRFTISRDNAKNTVYLQMNSLKPEVTAVYYCAADYAYNYFWRPGDYWGQGTQVTVSS”, the “polyreactivity (PSR sort gate)” value is “low polyreactivity”.

Take “QVQHAESGGGLDQAGGSLRLSCAASGGNFQANAMGWSRQATGKEREFVATITRGGGSTYYADSVKGRFTISRDNAKNTVYLQMNSLKPEDTAVYYCNSKPSYYQRYNYWGQGTQVTVSS”: the “polyreactivity (PSR sort gate)” value is “high polyreactivity”.

For the sequence “QVQLVESGGGLVQAGGSLRLSCAASGYIFGSYVMGWYRQAPGKERELVAAITRIGASTYYEDSVKGRFTISRDTAKNTVYIQMNSLKPDDTAVYDCATDQGGYYENDYWGQGTQVTVSS”, the “polyreactivity (PSR sort gate)” value is “low polyreactivity”.

For the sequence “QDQLVESGGGLVQAGGSLRLSCAASGSTFVPNAMGWYRQAPGKERELVAVISDSGVTTYYADSVKGRFTISRDNAKNTVYLQMNSLKPEDTAVYYCAARQDTWDAYLSTGEFDYWGQGTQVTVSS”, the “polyreactivity (PSR sort gate)” value is reported as “high polyreactivity”.

For the sequence “QVQLVESGGGLVQAGGSLRLSCAASGSNFAKNAMGWYRQAPGKEREMVAAITYSGGSTYYADSVKGRFTISRDNAKNTVYVQMNSLKPEDTAVYYCAADVWWSYYRYDYWGQGTQVTVSS”, the “polyreactivity (PSR sort gate)” value is recorded as “low polyreactivity”.

“QVQLVESGGGLVQAGGRLRLSCAATGRTFWENAMGWYRQAPGKERELVAAISGDSGSTYYADSVKGRFTISRDNAKNTVYLQMNSLKPEDTAVYYCAADSDRDDSYPYYYWGQGTQVTVSS”: the “polyreactivity (PSR sort gate)” value is listed as “low polyreactivity”.

On to “QVQLVESGGGLVQAGGSLRLSCAATGRIFVNAMGWYRQAPGKERELVAAINTRGGSTYYADSVKGRFTISRDNAKNSVYLQMNSLKPEDTAVYYCAARFYTSSRYNYWGQGTQVTVSS”, for which the “polyreactivity (PSR sort gate)” value was “high polyreactivity”.

Consider “QVQLVESGGGLVQAGGSLRLSCAASGRILYPYAMGWYRQAPGKERELVASISWSGGRTYYADSVKGRFTISRDHAKYTVYLQMNSLKPEDTAVYYCAATFSYSSYIYDYWGQGTQVTVSS”, for which the “polyreactivity (PSR sort gate)” value was “high polyreactivity”.

In the case of “QVQLVESGGGLVQAGGSLRLSCAASGFIFIPNTMGWYRQAPGKERELVASGSTYYADSVKGRFTISRDNAKNTVYLQLNSLKPEDTAVYYCAARYHRYSSEFDYWGQGTQVTVSS”, the “polyreactivity (PSR sort gate)” value is “low polyreactivity”.

Turning to “QVQLVESGGGLVQAGGSLRLSCAASGSIFYVYAMGWYRQAPGKERELVAAITARVTSTYYADSVKGRFTISRDNAKNTVYLQMNSLKPEDTAVYSCAARTSYKTGYRKYDYWGQATQVTVSS”, the “polyreactivity (PSR sort gate)” value is listed as “low polyreactivity”.

For “QVQLVESGGGLVQAGGSLRLSCAASGNIFPYYAMGWYRQAPGKERELVAVISYGGGNTRYADSVKGRFTISRDNAKNTVYLQMNSLIPEDTAVYYCAARRWGAAPRPYEGYYWGQGSQVTVSS”, the “polyreactivity (PSR sort gate)” value is recorded as “low polyreactivity”.

In the case of “QVQLVESGGGLVQAGGSLRLSCAASGFIFYGYVMGWYRQAPGKERELVAAITYNGGRTYYADSVKGRFTISRDNAKNTVYLQMNSLKPEDTAVYYCAALGYDGDYDYWGQGTQVTVSS”, the “polyreactivity (PSR sort gate)” value is recorded as “low polyreactivity”.

In the case of “QVQLVESGGGLVQAGGRLRLSCAASGFTFRYYAMGWYRQAPGKERELVAAISGSGVSTYYADSVKGRFTISRDNAKNTVYLQMNSLKPEDTAVYYCAAGYPGHYYKYDYWGQGTQVTVSS”, the “polyreactivity (PSR sort gate)” value is on record as “high polyreactivity”.

For the sequence “QVQLVESGGGLVQAGGSLRLSCAASGIIFSNYAMGWYRQAPGKERELVAAITRSGGRTYYADSVKGRFTISRDNAKNTVYLQMNSLKPEDTAVYYCAATGRSGVLSSYYYWGQGTQVTVSS”, the “polyreactivity (PSR sort gate)” value is recorded as “high polyreactivity”.
